In experiment [1] the target is T1, native IHFNTHI (integration host factor of nontypeable Haemophilus influenzae) (nontypeable Haemophilus influenzae …, UniProt P43723 1-96; P43724 1-94).
T1 construct: also called NTHI IHF
T1 sequence 1: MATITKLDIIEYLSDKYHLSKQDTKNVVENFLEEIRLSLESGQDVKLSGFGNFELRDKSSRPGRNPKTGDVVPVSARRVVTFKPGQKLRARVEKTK
T1 sequence 2: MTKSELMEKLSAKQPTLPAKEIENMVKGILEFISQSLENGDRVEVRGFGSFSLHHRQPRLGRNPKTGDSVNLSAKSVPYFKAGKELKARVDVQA
The experiment is described as follows: SPR Biacore 3000, IHFNTHI immobilized, HuMab as analyte.

The target of experiment [2] is T2, tip-chimeric peptide IhfA5-mIhfB4NTHI (nontypeable Haemophilus influenzae …).
T2 construct: also called IHF(NTHI) tip chimeric peptide; IHFNTHI tip chimeric peptide
T2 peptide: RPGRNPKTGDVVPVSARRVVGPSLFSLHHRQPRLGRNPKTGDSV
Description: SPR Biacore 3000, peptide immobilized, HuMab as analyte.

Experiment [3] concerns the target T1, native IHFNTHI (integration host factor …). Description: SPR Biacore 3000, HuMab immobilized, IHFNTHI as analyte.
For experiment [4], the target named is T2, tip-chimeric peptide IhfA5-mIhfB4NTHI. Description: SPR Biacore 3000, HuMab immobilized, peptide as analyte.
The target is the same in experiment [5]. The experiment is described as follows: direct ELISA #2, peptide coated (curves reaching equilibrium).
The target is the same in experiment [6]. Description: direct ELISA #1, peptide coated (curves not reaching equilibrium).
Experiment [7] shares this target. Description: direct binding ELISA: tip chimeric peptide coated at 2 ug/mL, antibody titrated 1:3 in 8 points, anti-human IgG Fc-HRP, absorbance at 450 nm [panel B].

B1: humanized anti-tip monoclonal antibody, heavy chain SEQ ID NO: 3 and light chain SEQ ID NO: 8 (antibody, V domains shown)
VH: EVKLVQSGAEVKKPGASVKVSCKASGFTFRTYAMSWVRQAPGQRLEWVATIGSDRRHTYYPDKFQGRVTITRDNAKNTLYMELSSLRSEDTAVYYCVGPYDGYYGEFDYWGQGTLVTVSS
VL: DVVMTQSPLSLPVTLGQPASISCRSSQSLLDSDGKTFLNWLQQRPGQSPRRLIYLVSKRDSGVPDRFSGSGSGTDFTLKISRVEAEDVGVYYCWQGTHFPYTFGQGTKLEIKR
notes: also called H10212 (1F8.F1 Humanized HC3) + L10211 (1F8.F1 Humanized LC2)
Take B1: the Kd in experiment [1] is 0.115 µM; in experiment [2] it was 0.007 µM; in experiment [3] it was 0.245 µM; in experiment [4], 0.02 µM. In addition, the koff in experiment [1] is 0.00021 s⁻¹; in experiment [2] it was 0.00035 s⁻¹; in experiment [3] it was 0.0018 s⁻¹; in experiment [4], 0.0019 s⁻¹. The kon in experiment [1] was 1800 M⁻¹ s⁻¹; in experiment [2] it was 51000 M⁻¹ s⁻¹; in experiment [3], 7500 M⁻¹ s⁻¹; in experiment [4], 95000 M⁻¹ s⁻¹. In addition, the EC50 came to 0.0934 mg/L in experiment [5], 0.066 mg/L in experiment [6] and 0.086 mg/L in experiment [7].

(Values after US20210206841A1 (RESEARCH INSTITUTE AT NATIONWIDE CHILDREN S HOSPITAL, published 2021).)
